Reference: PMC9136124
Values belong to the substance of their own block, whether it stands above or below them.

Key:
[1] = target: FakA linker region, central domain (FakA_L) (Staphylococcus aureus); test: AUC; sedimentation velocity of single constructs, c(s) model in SEDFIT, 20 mM Tris, pH 7.5, 200 mM NaCl, 5 mM DTT, 20 °C, 50,000 rpm, Rayleigh interference optics
[2] = target: FakA, kinase component of fatty acid kinase (Staphylococcus aureus) (Staphylococcus aureus); test: SEC-SAXS; Superdex 200 10/300, 20 mM Tris, pH 7.5, 200 mM NaCl, 1% glycerol; 300 μl FakA (4 mg/ml), FakA_NL (6.2 mg/ml) or FakA_LC (6 mg/ml) loaded
[3] = target: FakA_LC (FakA_L and FakA_C domains connected) (Staphylococcus aureus); test: as above
[4] = target: FakA_LC (FakA_L and FakA_C domains connected) (Staphylococcus aureus); test: SEC; analytical size exclusion chromatography on a S-75 13/300 column, 20 mM Tris, pH 7.5, 200 mM NaCl; oligomerization state estimated from a standard curve of protein standards
[5] = target: FakA_NL (FakA_N and FakA_L domains connected) (Staphylococcus aureus); test: SEC-SAXS; Superdex 200 10/300, 20 mM Tris, pH 7.5, 200 mM NaCl, 1% glycerol; 300 μl FakA (4 mg/ml), FakA_NL (6.2 mg/ml) or FakA_LC (6 mg/ml) loaded
[6] = target: FakA_NL (FakA_N and FakA_L domains connected) (Staphylococcus aureus); test: SEC; analytical size exclusion chromatography on a S-75 13/300 column, 20 mM Tris, pH 7.5, 200 mM NaCl; oligomerization state estimated from a standard curve of protein standards
[7] = target: FakA_αβ bundle with helix (Staphylococcus aureus); test: AUC; sedimentation velocity of single constructs, c(s) model in SEDFIT, 20 mM Tris, pH 7.5, 200 mM NaCl, 5 mM DTT, 20 °C, 50,000 rpm, Rayleigh interference optics
[8] = target: FakA C terminus, FakB substrate-binding domain (FakA_C) (Staphylococcus aureus); test: AUC; FakB1 mixed with each isolated FakA domain; c(s) model by the text, 'sedimentation equilibrium' by the legend of Figure 4; 20 mM Tris, pH 7.5, 200 mM NaCl, 5 mM DTT, 20 °C; apparent KD from equilibrium concentrations of duplicate experiments, single site equilibrium model

Substance: FakA, kinase component of fatty acid kinase (Staphylococcus aureus) (enzyme)
stoichiometry N [2]: 2

Substance: FakA_αβ bundle with helix (domain or fragment)
stoichiometry N [7]: 2

Substance: FakB1, fatty acid binding protein component of fatty acid kinase (Staphylococcus aureus) (from UniProt X5EH37 1-288) (natural protein)
Kd [8]: 16 µM
stoichiometry N [8]: 1

The next lines start with the values.

stoichiometry N [1]: 2
Substance: FakA linker region, central domain (FakA_L) (domain or fragment)

stoichiometry N [3]: 2
stoichiometry N [4]: 2
Substance: FakA_LC (FakA_L and FakA_C domains connected) (domain or fragment)

stoichiometry N [5]: 2
stoichiometry N [6]: 2
Substance: FakA_NL (FakA_N and FakA_L domains connected) (domain or fragment)
